Source: patent US20250277003A1

Tests used:
[1] = biological target: SARS-CoV-2 RBD glycan-masked mutant GM9 (SARS-CoV-2) (UniProt P0DTC2); assay: ELISA, AUC relative to RBD WT
[2] = biological target: SARS-CoV-2 RBD glycan-masked mutant GM14 (SARS-CoV-2) (UniProt P0DTC2); assay: ELISA, AUC relative to RBD WT

Substance | %AUC [1] | %AUC [2]
mAb CB6 (antibody) | 7.2% | 7.8%
mAb C002 (antibody) | 51.3% | 10.2%
mAb EY6A (antibody) | 115% | 94.5%
mAb CR3022 (antibody) | 120% | 72.9%
mAb S309 (antibody) | 114% | 83.4%
